Experiments:
Type in all cases: biochemical
[1] = molecular target: IGF1R (Homo sapiens, UniProt P08069); test: TR-FRET kinase assay, IGF1R; conditions: Kinase Concentration 0.25 nM; 50 nM ULight-labeled substrate, 200 micromolar ATP, 2 hours
Experimental: (§1) TR-FRET kinase assays are performed under standardized conditions: various individual kinases are incubated with 50 nM of kinase substrate BRB1 labeled with the TR-FRET acceptor dye ULight (PerkinElmer) and 200 micromolar ATP in 10 μL of kinase assay buffer (50 mM HEPES pH7.5, 10 mM MgCl2, 3 mM MnCl2, 1 mM EGTA, 2 mM DTT and 0.01% Tween-20) for 2 hours at room temperature. Reactions are stopped with EDTA, and anti-phospho-tyrosine antibodies (clone PT66) labeled with the TR-FRET europium chelate donor dye are added to a final concentration of 2 nM in a final volume of 20 μL. The TR-FRET signal emitted at 665 nm is read one hour after the addition of antibodies using a TR-FRET plate reader such as the Envision® Multilabel Plate reader (PerkinElmer). The emitted signal at 665 nm is proportional to the extent of peptide phosphorylation, Control reactions indicative of background are performed excluding ATP from the reaction.
(§2) Assay conditions are identical to those used described for FIG. 1.

[2] = molecular target: T1, DDR2 (Homo sapiens, UniProt Q16832); test: TR-FRET kinase assay, DDR2; conditions: Kinase Concentration 0.5 nM; 50 nM ULight-labeled substrate, 200 micromolar ATP, 2 hours
T1 sequence (Q16832 22-855): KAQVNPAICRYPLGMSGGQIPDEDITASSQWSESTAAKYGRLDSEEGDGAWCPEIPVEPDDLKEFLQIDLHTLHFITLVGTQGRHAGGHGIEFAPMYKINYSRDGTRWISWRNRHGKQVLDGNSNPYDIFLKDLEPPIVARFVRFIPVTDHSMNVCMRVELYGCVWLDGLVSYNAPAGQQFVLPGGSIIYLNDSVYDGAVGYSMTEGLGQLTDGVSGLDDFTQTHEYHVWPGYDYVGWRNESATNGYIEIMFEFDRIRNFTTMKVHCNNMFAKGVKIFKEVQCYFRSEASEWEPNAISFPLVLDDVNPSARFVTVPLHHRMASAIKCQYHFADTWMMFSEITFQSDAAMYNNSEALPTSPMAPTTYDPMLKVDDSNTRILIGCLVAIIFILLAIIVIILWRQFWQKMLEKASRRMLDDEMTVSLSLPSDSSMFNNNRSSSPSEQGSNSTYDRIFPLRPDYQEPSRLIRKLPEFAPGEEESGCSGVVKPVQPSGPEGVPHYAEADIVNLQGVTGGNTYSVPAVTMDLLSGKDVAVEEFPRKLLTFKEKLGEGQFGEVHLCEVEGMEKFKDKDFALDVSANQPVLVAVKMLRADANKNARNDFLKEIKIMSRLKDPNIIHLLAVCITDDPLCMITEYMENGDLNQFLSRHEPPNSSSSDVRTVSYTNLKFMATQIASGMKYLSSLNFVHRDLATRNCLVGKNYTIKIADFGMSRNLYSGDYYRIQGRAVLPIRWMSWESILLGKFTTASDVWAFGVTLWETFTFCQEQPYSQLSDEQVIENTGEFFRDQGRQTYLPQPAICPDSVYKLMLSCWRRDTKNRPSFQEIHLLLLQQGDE
Experimental: as §1, §2

[3] = molecular target: LCK (Homo sapiens, UniProt P06239); test: TR-FRET kinase assay, LCK; conditions: Kinase Concentration 0.5 nM; 50 nM ULight-labeled substrate, 200 micromolar ATP, 2 hours
Experimental: as §1, §2

[4] = molecular target: DDR1 (Homo sapiens, UniProt Q08345); test: TR-FRET kinase assay, DDR1; conditions: Kinase Concentration 0.5 nM; 50 nM ULight-labeled substrate, 200 micromolar ATP, 2 hours
Experimental: as §1, §2

[5] = molecular target: BLK (Homo sapiens, UniProt P51451); test: TR-FRET kinase assay, BLK; conditions: Kinase Concentration 0.5 nM; 50 nM ULight-labeled substrate, 200 micromolar ATP, 2 hours
Experimental: as §1, §2

[6] = molecular target: LYNb (Homo sapiens, UniProt P07948); test: TR-FRET kinase assay, LYNb; conditions: Kinase Concentration 1 nM; 50 nM ULight-labeled substrate, 200 micromolar ATP, 2 hours
Experimental: as §1, §2

[7] = molecular target: ROR2 (Homo sapiens, UniProt Q01974); test: TR-FRET kinase assay, ROR2; conditions: Kinase Concentration 20 nM; 50 nM ULight-labeled substrate, 200 micromolar ATP, 2 hours
Experimental: as §1, §2

[8] = molecular target: TRKC (NTRK3) (Homo sapiens, UniProt Q16288); test: TR-FRET kinase assay, TRKC (NTRK3); conditions: Kinase Concentration 0.5 nM; 50 nM ULight-labeled substrate, 200 micromolar ATP, 2 hours
Experimental: as §1, §2

[9] = molecular target: T2, EphA3 (Homo sapiens, UniProt P29320); test: TR-FRET kinase assay, EphA3; conditions: Kinase Concentration 0.5 nM; 50 nM ULight-labeled substrate, 200 micromolar ATP, 2 hours
T2 sequence (P29320 21-983): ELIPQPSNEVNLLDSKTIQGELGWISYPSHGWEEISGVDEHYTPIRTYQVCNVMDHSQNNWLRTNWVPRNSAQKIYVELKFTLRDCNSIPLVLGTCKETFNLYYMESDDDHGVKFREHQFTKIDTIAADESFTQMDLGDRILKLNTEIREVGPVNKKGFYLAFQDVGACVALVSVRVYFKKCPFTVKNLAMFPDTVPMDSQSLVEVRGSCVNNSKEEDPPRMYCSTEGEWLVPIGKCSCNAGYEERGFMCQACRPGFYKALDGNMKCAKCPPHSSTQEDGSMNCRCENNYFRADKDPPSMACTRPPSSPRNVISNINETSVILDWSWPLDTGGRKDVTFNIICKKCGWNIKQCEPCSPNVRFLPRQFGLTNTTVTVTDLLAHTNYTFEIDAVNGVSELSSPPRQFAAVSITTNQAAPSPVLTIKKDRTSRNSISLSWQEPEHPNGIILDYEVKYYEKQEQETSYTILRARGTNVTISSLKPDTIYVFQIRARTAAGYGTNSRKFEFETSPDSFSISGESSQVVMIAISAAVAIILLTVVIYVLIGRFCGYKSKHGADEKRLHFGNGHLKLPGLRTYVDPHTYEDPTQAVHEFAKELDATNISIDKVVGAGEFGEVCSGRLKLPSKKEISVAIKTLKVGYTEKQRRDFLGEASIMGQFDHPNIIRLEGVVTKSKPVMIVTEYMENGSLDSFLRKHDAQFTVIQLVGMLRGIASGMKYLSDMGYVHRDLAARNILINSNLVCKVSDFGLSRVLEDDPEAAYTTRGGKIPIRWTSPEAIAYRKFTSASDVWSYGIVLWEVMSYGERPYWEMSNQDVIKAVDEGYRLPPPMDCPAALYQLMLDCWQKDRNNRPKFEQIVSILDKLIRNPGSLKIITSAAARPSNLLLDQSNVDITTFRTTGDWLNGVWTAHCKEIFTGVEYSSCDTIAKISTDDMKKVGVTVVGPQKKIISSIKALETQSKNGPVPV
Experimental: as §1, §2

[10] = molecular target: FYN (Homo sapiens, UniProt P06241); test: TR-FRET kinase assay, FYN; conditions: Kinase Concentration 0.25 nM; 50 nM ULight-labeled substrate, 200 micromolar ATP, 2 hours
Experimental: as §1, §2

Chain of LYNb (P07948 1-491 isoform P07948-2, species assumed): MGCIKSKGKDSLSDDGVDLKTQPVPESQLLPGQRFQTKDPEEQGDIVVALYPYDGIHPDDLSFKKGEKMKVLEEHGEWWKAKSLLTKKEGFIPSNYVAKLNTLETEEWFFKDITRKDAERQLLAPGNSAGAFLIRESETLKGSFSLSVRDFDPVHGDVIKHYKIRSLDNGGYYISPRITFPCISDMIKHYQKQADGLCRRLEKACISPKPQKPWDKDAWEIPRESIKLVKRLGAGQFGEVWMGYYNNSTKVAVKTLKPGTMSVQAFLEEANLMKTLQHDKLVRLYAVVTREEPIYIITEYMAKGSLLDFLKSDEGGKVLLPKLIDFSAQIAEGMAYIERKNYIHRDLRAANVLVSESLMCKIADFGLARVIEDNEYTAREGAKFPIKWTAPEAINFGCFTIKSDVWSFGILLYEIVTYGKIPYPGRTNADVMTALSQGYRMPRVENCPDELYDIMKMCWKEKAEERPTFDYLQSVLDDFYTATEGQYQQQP
Chain of FYN (P06241 whole entry, species assumed): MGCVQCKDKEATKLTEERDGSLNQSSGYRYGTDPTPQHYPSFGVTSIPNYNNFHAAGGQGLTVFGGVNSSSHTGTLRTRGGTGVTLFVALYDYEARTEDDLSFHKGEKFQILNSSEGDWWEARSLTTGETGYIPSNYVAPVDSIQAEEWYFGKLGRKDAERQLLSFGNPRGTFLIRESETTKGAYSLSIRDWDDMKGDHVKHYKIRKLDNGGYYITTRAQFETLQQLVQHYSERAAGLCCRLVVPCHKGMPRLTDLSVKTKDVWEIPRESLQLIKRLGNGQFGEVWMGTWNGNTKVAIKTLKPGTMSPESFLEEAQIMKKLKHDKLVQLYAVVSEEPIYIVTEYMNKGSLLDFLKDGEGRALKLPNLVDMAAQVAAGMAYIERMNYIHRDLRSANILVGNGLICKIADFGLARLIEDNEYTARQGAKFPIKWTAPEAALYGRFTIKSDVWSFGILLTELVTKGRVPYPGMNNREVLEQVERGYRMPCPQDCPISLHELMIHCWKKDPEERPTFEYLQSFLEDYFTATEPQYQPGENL
Chain of LCK (P06239 whole entry, species assumed): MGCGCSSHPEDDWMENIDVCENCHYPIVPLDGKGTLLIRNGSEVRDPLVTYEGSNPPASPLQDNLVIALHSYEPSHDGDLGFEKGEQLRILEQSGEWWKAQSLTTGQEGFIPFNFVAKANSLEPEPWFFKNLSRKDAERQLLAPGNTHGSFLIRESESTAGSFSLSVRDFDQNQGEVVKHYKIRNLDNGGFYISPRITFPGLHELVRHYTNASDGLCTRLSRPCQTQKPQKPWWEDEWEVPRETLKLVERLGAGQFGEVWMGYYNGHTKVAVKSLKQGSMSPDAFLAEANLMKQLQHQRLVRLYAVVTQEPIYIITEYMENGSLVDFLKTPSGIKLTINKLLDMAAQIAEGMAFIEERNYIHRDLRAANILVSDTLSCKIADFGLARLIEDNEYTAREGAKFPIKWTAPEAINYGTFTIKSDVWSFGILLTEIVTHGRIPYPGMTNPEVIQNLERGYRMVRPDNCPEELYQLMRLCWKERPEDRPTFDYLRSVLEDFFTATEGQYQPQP
Chain of BLK (P51451 whole entry, species assumed): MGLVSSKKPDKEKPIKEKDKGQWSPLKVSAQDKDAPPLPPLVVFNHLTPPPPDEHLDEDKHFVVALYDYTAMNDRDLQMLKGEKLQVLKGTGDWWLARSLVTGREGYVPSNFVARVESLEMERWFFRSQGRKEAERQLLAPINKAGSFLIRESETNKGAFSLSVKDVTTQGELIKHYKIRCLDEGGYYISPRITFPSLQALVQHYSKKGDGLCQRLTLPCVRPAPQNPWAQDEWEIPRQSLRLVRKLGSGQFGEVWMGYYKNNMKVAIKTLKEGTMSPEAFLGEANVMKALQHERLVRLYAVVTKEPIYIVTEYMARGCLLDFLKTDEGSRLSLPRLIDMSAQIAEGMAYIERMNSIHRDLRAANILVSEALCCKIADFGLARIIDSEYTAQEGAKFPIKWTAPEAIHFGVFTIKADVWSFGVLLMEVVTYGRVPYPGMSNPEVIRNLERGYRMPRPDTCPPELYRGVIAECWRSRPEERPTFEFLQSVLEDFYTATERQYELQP
Chain of DDR1 (Q08345 19-913, species assumed): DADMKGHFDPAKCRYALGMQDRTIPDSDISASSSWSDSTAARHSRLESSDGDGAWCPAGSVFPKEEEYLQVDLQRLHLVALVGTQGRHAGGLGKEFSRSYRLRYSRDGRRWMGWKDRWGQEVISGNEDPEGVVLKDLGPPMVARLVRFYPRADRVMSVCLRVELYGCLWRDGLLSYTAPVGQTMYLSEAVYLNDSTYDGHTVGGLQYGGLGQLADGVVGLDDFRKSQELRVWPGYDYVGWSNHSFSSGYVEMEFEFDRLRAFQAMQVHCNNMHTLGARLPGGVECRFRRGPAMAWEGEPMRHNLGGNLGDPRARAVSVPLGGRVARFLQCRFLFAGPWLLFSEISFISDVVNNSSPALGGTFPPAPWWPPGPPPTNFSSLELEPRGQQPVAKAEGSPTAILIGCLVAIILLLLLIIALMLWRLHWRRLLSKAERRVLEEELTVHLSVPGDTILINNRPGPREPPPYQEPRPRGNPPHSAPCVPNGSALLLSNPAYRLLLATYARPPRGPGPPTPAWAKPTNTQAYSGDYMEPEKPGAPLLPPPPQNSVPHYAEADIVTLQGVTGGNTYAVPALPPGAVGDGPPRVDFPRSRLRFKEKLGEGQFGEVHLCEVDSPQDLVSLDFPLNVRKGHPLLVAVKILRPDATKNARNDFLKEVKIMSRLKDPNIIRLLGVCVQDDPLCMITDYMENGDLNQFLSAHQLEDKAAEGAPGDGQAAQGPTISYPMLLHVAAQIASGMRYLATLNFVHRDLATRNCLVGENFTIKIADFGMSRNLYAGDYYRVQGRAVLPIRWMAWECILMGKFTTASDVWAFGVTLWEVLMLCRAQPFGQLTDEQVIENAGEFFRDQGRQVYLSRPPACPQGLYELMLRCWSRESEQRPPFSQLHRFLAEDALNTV

## C AYE AYE AYE K EYA EYA EYA K AYA EYE R (CAYEAYEAYEKEYAEYAEYAKAYAEYER; tyrosine kinase substrate peptide) [BRB1]
[1]
  Signal to Noise ratio with BRB1 Peptide: 25.1
[2]
  Signal to Noise ratio with BRB1 Peptide: 1.0
[3]
  Signal to Noise ratio with BRB1 Peptide: 12.3
[4]
  Signal to Noise ratio with BRB1 Peptide: 1.0
[5]
  Signal to Noise ratio with BRB1 Peptide: 31.0
[6]
  Signal to Noise ratio with BRB1 Peptide: 33.1
[7]
  Signal to Noise ratio with BRB1 Peptide: 1.0
[8]
  Signal to Noise ratio with BRB1 Peptide: 6.4
[9]
  Signal to Noise ratio with BRB1 Peptide: 22.4
[10]
  Signal to Noise ratio with BRB1 Peptide: 25.9
